This is an account of results in publication PMC3939451.

A short description of data set [1]: CHX chase, immunoblot, percent remaining. The settings on record: glycan lost; control: WT-ABCG8.
A short description of data set [2]: steady-state immunoblot, HEK293. The settings on record: glycan lost.

B1: ABCG8: N619Q (protein)
parent chain: MAGKAAEERGLPKGATPQDTSGLQDRLFSSESDNSLYFTYSGQPNTLEVRDLNYQVDLASQVPWFEQLAQFKMPWTSPSCQNSCELGIQNLSFKVRSGQMLAIIGSSGCGRASLLDVITGRGHGGKIKSGQIWINGQPSSPQLVRKCVAHVRQHNQLLPNLTVRETLAFIAQMRLPRTFSQAQRDKRVEDVIAELRLRQCADTRVGNMYVRGLSGGERRRVSIGVQLLWNPGILILDEPTSGLDSFTAHNLVKTLSRLAKGNRLVLISLHQPRSDIFRLFDLVLLMTSGTPIYLGAAQHMVQYFTAIGYPCPRYSNPADFYVDLTSIDRRSREQELATREKAQSLAALFLEKVRDLDDFLWKAETKDLDEDTCVESSVTPLDTNCLPSPTKMPGAVQQFTTLIRRQISNDFRDLPTLLIHGAEACLMSMTIGFLYFGHGSIQLSFMDTAALLFMIGALIPFNVILDVISKCYSERAMLYYELEDGLYTTGPYFFAKILGELPEHCAYIIIYGMPTYWLANLRPGLQPFLLHFLLVWLVVFCCRIMALAAAALLPTFHMASFFSNALYNSFYLAGGFMINLSSLWTVPAWISKVSFLRWCFEGLMKIQFSRRTYKMPLGNLTIAVSGDKILSVMELDSYPLYAIYLIVIGLSGGFMVLYYVSLRFIKQKPSQDW
For B1, the degradation_or_half_life entry in data set [1] is recorded as “decreases, 44.40% vs. 43.95% at 2 hrs; 26.01% vs. 29.36% at 4 hrs”. In addition, the expression_or_secretion result in data set [2] (control: WT-ABCG8) is “decreases”.

B2: ABCG5: N584Q (protein)
parent chain: MGDLSSLTPGGSMGLQVNRGSQSSLEGAPATAPEPHSLGILHASYSVSHRVRPWWDITSCRQQWTRQILKDVSLYVESGQIMCILGSSGSGKTTLLDAMSGRLGRAGTFLGEVYVNGRALRREQFQDCFSYVLQSDTLLSSLTVRETLHYTALLAIRRGNPGSFQKKVEAVMAELSLSHVADRLIGNYSLGGISTGERRRVSIAAQLLQDPKVMLFDEPTTGLDCMTANQIVVLLVELARRNRIVVLTIHQPRSELFQLFDKIAILSFGELIFCGTPAEMLDFFNDCGYPCPEHSNPFDFYMDLTSVDTQSKEREIETSKRVQMIESAYKKSAICHKTLKNIERMKHLKTLPMVPFKTKDSPGVFSKLGVLLRRVTRNLVRNKLAVITRLLQNLIMGLFLLFFVLRVRSNVLKGAIQDRVGLLYQFVGATPYTGMLNAVNLFPVLRAVSDQESQDGLYQKWQMMLAYALHVLPFSVVATMIFSSVCYWTLGLHPEVARFGYFSAALLAPHLIGEFLTLVLLGIVQNPNIVNSVVALLSIAGVLVGSGFLRNIQEMPIPFKIISYFTFQKYCSEILVVNEFYGLNFTCGSSNVSVTTNPMCAFTQGIQFIEKTCPGATSRFTMNFLILYSFIPALVILGIVVFKIRDHLISR
Take B2: the expression_or_secretion entry in data set [2] (control: WT-ABCG5) is given as “decreases”.

B3: ABCG5: N584Q/N591Q (protein)
parent chain: B2 parent chain
For the protein B3, the expression_or_secretion result in data set [2] (control: WT-ABCG5) is “decreases”.

B4: ABCG5: N591Q (protein)
parent chain: B2 parent chain
For the protein B4, the expression_or_secretion entry in data set [2] (control: WT-ABCG5) is “decreases”.
